± gives the uncertainty stated by the source.
Test: self-splicing fitness, log relative to wild type (ln ratio); higher = more splicing; Tetrahymena group I intron in knt gene, E. coli kanamycin selection, DiMSum; sequences stand for … in CUCUCU…GGAGGGAAAAGUUAUCAGGCAUGCACCUGGUAGCUAGUCUUUAAACCAAUAGAUUGCAUCGGUUUAAAAGGCAAGACCGUCAAAUUGCGGGAAAGGGGUCAACAGCCGUUCAGUACCAAGUCUCAGGGGAAACUUUGAGAUGGCCUUGCAAAGGGUAUGGUAAUAAGCUGACGGACAUGGUCCUAACCACGCAGCCAAGUCCUAAGUCAACAGAUCUUCUGUUGAUAUGGAUGCAGUUCACAGACUAAAUGUCGGUCGGGGAAGAUGUAUUCUUCUCAUAAGAUAUAGUCGGACCUCUCCUUAAUGGGAGCUAGCGGAUGAAGUGAUGCAACACUGGAGCCGCUGGGAACUAAUUUGUAUGCGAAAGUAUAUUGAUUAGUUUUGGAGUACUCGUGGUCG
In short: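 Fitness was computed with DiMSum as the error-weighted combination of replicate fold changes, kanamycin versus none, each normalised to wild type. The library randomised all eight intron nucleotides of the P1ex region, with the intron placed in the knt kanamycin-resistance gene on pET-22b(+) in E. coli BL21(DE3). Six replicate transformations were grown overnight at 37°C or 30°C on LB agar with or without 25 μg/mL kanamycin, plus 100 μg/mL carbenicillin, 50 μM IPTG and 0.2% rhamnose. Pooled colonies were amplicon-sequenced on an Illumina HiSeq 2500.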

Row | Sequence | self-splicing fitness (ln) (30 °C) | self-splicing fitness (ln) (37 °C)
1 | AACGAGCAAUAUUACGUCAU | -2.98 ± 0.1 | -2.44 ± 0.13
2 | UGUGAGCAAUAUUACGGUCA | -0.959 ± 0.056 | -0.333 ± 0.069
3 | AAUCAGCAAUAUUACGCGCU | -1.16 ± 0.075 | -0.732 ± 0.084
4 | GCUUAGCAAUAUUACGCCCA | -1.96 ± 0.24 | -0.0842 ± 0.23
5 | AUUUAGCAAUAUUACGAAUU | -3.21 ± 0.35 | -1.85 ± 0.38
6 | UUUCAGCAAUAUUACGGUUG | -1.62 ± 0.091 | -1.1 ± 0.12
7 | AAGUAGCAAUAUUACGCCGC | -3.12 ± 0.38 | –
8 | CACUAGCAAUAUUACGAGGG | -3.29 ± 0.18 | -1.34 ± 0.15
9 | UAAAAGCAAUAUUACGAAAG | -2.21 ± 0.17 | -1.56 ± 0.16
10 | GGUUAGCAAUAUUACGCCCG | -3.15 ± 0.49 | -1.55 ± 0.48
11 | GGACAGCAAUAUUACGUCUC | -4.03 ± 0.18 | -2.57 ± 0.2
12 | ACUUAGCAAUAUUACGCCGG | -1.08 ± 0.14 | -0.478 ± 0.18
13 | GCGAAGCAAUAUUACGGUCC | -3.6 ± 0.25 | -2.27 ± 0.31
14 | UGCUAGCAAUAUUACGCGCG | -0.603 ± 0.092 | -1.08 ± 0.12
15 | GAUAAGCAAUAUUACGUCAA | -1.66 ± 0.16 | -1.39 ± 0.14
16 | UACUAGCAAUAUUACGGAUC | -2.66 ± 0.19 | -1.7 ± 0.24
17 | CUGUAGCAAUAUUACGCUGG | – | -0.992 ± 0.34
18 | CGGUAGCAAUAUUACGAAGG | -0.178 ± 0.15 | 0.565 ± 0.16
19 | CCUAAGCAAUAUUACGAGAG | -2.31 ± 0.17 | -1.23 ± 0.13
20 | CGAUAGCAAUAUUACGCGAC | -2.59 ± 0.32 | -1.35 ± 0.28
21 | CUUCAGCAAUAUUACGCGUU | -2.33 ± 0.12 | -2.7 ± 0.21
22 | GCUUAGCAAUAUUACGCCUG | -2.35 ± 0.14 | -1.02 ± 0.13
23 | AGUUAGCAAUAUUACGAAGA | -1.18 ± 0.4 | -2.26 ± 0.34
24 | CGGAAGCAAUAUUACGCACG | – | 0.981 ± 0.23
25 | UCCAAGCAAUAUUACGCGCG | -2.95 ± 0.17 | -1.49 ± 0.23

Row | Sequence | self-splicing fitness (ln) (30 °C) | self-splicing fitness (ln) (37 °C)
26 | CAGAAGCAAUAUUACGCCCU | – | -1.83 ± 0.43
27 | AUCCAGCAAUAUUACGAAUC | -2.04 ± 0.15 | -1.87 ± 0.22
28 | AUUGAGCAAUAUUACGGCAG | -2.56 ± 0.18 | -1.38 ± 0.27
29 | AGGUAGCAAUAUUACGGCGG | -1.955 ± 0.016 | -1.11 ± 0.034
30 | GGCGAGCAAUAUUACGGAAA | -1.06 ± 0.48 | –
31 | ACUGAGCAAUAUUACGUUCU | -1.77 ± 0.14 | -1.48 ± 0.12
32 | GGGAAGCAAUAUUACGAAGA | – | -0.943 ± 0.23
33 | GUAUAGCAAUAUUACGAAAC | – | -1.02 ± 0.49
34 | UGUGAGCAAUAUUACGGAGA | -3.34 ± 0.28 | -2.29 ± 0.31
35 | UGCAAGCAAUAUUACGGACU | -0.763 ± 0.077 | 0.286 ± 0.093
36 | CUAUAGCAAUAUUACGCCAG | -1.83 ± 0.18 | -0.622 ± 0.25
37 | GGCAAGCAAUAUUACGGACU | 0.0032 ± 0.071 | 0.777 ± 0.096
38 | CCCAAGCAAUAUUACGCACA | -2.53 ± 0.2 | -2.19 ± 0.31
39 | CCUCAGCAAUAUUACGACUU | -3.69 ± 0.42 | -2.43 ± 0.26
40 | GUAGAGCAAUAUUACGCACA | -0.23 ± 0.14 | -0.117 ± 0.14
41 | GUGAAGCAAUAUUACGAGUC | -2.58 ± 0.17 | -0.63 ± 0.23
42 | GAACAGCAAUAUUACGGCCC | -0.734 ± 0.27 | -0.265 ± 0.28
43 | CCCGAGCAAUAUUACGACGG | -3.44 ± 0.17 | -3.49 ± 0.27
44 | GAGGAGCAAUAUUACGCCUG | -2.07 ± 0.41 | -1.3 ± 0.44
45 | AGAGAGCAAUAUUACGAUUU | -1.52 ± 0.11 | -0.748 ± 0.11
46 | CGAAAGCAAUAUUACGCCAG | -0.884 ± 0.14 | -0.307 ± 0.21
47 | UAAUAGCAAUAUUACGGCGC | -3.51 ± 0.35 | -2.42 ± 0.38
48 | AAUGAGCAAUAUUACGGACA | -2.93 ± 0.45 | –
49 | AUGGAGCAAUAUUACGCAUA | -1.53 ± 0.42 | -1.29 ± 0.23
50 | UGCUAGCAAUAUUACGGGUC | -2.99 ± 0.16 | -2.62 ± 0.18

Row | Sequence | self-splicing fitness (ln) (30 °C) | self-splicing fitness (ln) (37 °C)
51 | GUGCAGCAAUAUUACGACAG | -2.83 ± 0.14 | -1.71 ± 0.16
52 | CCGCAGCAAUAUUACGAAAG | -0.925 ± 0.066 | 0.125 ± 0.084
53 | UCCAAGCAAUAUUACGUAGG | -0.867 ± 0.06 | -0.159 ± 0.094
54 | UUCAAGCAAUAUUACGUAUA | -1.48 ± 0.1 | -0.136 ± 0.096
55 | CCGGAGCAAUAUUACGUUGA | – | -2.61 ± 0.36
56 | GUACAGCAAUAUUACGCUUC | -2.54 ± 0.19 | -2.69 ± 0.26
57 | GGGUAGCAAUAUUACGGACG | -1.74 ± 0.13 | -2.1 ± 0.2
58 | AUCCAGCAAUAUUACGGCCU | -0.115 ± 0.065 | 0.0854 ± 0.081
59 | UUCUAGCAAUAUUACGACGA | -0.439 ± 0.12 | 0.731 ± 0.14
60 | GUAUAGCAAUAUUACGCACC | -1.85 ± 0.17 | -1.66 ± 0.27
61 | AGGGAGCAAUAUUACGUGCU | -3.8 ± 0.3 | -1.92 ± 0.25
62 | AGCGAGCAAUAUUACGGUCU | -1.42 ± 0.1 | -0.715 ± 0.15
63 | ACCGAGCAAUAUUACGCUGG | -4.24 ± 0.26 | -2.13 ± 0.21
64 | CUAAAGCAAUAUUACGCUGA | -3.03 ± 0.18 | -2.95 ± 0.29
65 | GCCGAGCAAUAUUACGCGAA | -1.84 ± 0.12 | -1.34 ± 0.17
66 | CUCGAGCAAUAUUACGACGA | -2.5 ± 0.24 | -1.26 ± 0.29
67 | UCUAAGCAAUAUUACGCGUG | -1.43 ± 0.087 | -1.15 ± 0.11
68 | CAGAAGCAAUAUUACGUAGC | -3.8 ± 0.27 | -3.32 ± 0.28
69 | AUUCAGCAAUAUUACGAUGG | -2.57 ± 0.16 | -0.688 ± 0.15
70 | GGGAAGCAAUAUUACGGGCU | -0.942 ± 0.12 | -0.846 ± 0.12
71 | AAUCAGCAAUAUUACGACUA | 0.113 ± 0.14 | -0.783 ± 0.12
72 | AAAAAGCAAUAUUACGGGUC | -3.39 ± 0.16 | -2.7 ± 0.26
73 | CAGUAGCAAUAUUACGUGCA | -3.14 ± 0.13 | -2.45 ± 0.14
74 | UUACAGCAAUAUUACGGUAU | -1.96 ± 0.097 | -0.871 ± 0.1
75 | UUGAAGCAAUAUUACGUCAA | -0.54 ± 0.083 | 0.078 ± 0.1

Row | Sequence | self-splicing fitness (ln) (30 °C) | self-splicing fitness (ln) (37 °C)
76 | UAACAGCAAUAUUACGACAA | -0.503 ± 0.094 | 0.136 ± 0.096
77 | CUAAAGCAAUAUUACGACGA | -2.38 ± 0.13 | -0.919 ± 0.15
78 | CUCAAGCAAUAUUACGCUGG | -3.19 ± 0.15 | -2.62 ± 0.23
79 | UCCCAGCAAUAUUACGAUAG | -3.91 ± 0.26 | -1.97 ± 0.23
80 | ACGGAGCAAUAUUACGAGUA | -2.03 ± 0.41 | -1.94 ± 0.33
81 | CGAAAGCAAUAUUACGUACC | -1.18 ± 0.13 | -0.845 ± 0.2
82 | UUGUAGCAAUAUUACGUGUA | -1.34 ± 0.12 | -1.12 ± 0.15
83 | GCCCAGCAAUAUUACGGCCU | -2.68 ± 0.16 | -0.992 ± 0.13
84 | AUUGAGCAAUAUUACGGCAC | -3.48 ± 0.37 | -0.518 ± 0.33
85 | GGCCAGCAAUAUUACGGUUU | -0.995 ± 0.067 | -0.401 ± 0.074
86 | GCUUAGCAAUAUUACGGCGA | -1.75 ± 0.14 | -1.33 ± 0.16
87 | AGCCAGCAAUAUUACGCCUA | -2.14 ± 0.25 | -1.07 ± 0.23
88 | AUGGAGCAAUAUUACGAUUU | -1.08 ± 0.12 | -1.6 ± 0.16
89 | CUAAAGCAAUAUUACGUUGC | -3.49 ± 0.18 | -2.45 ± 0.22
90 | CACCAGCAAUAUUACGGUGU | -3.39 ± 0.11 | -1.82 ± 0.12
91 | UGAUAGCAAUAUUACGUCCG | -0.219 ± 0.11 | -0.0349 ± 0.13
92 | AUUGAGCAAUAUUACGCGUG | -2.28 ± 0.16 | -2.32 ± 0.23
93 | UAGUAGCAAUAUUACGAGAG | -3.43 ± 0.24 | -2.67 ± 0.18
94 | AUUAAGCAAUAUUACGUGCG | -0.862 ± 0.091 | 0.0786 ± 0.13
95 | GAGAAGCAAUAUUACGUAGG | -3.2 ± 0.23 | -0.924 ± 0.15
96 | UAUCAGCAAUAUUACGUGCG | -0.0936 ± 0.087 | 0.327 ± 0.11
97 | UCACAGCAAUAUUACGGAGA | -1.48 ± 0.1 | -0.898 ± 0.11
98 | AACCAGCAAUAUUACGCGGA | -2.05 ± 0.093 | -0.49 ± 0.072

From the supplement of paper PMC7877785
